{"source": "paper PMC6723671", "origin": "cited, not measured here", "target": "CD150 (SLAM) ECD (Homo sapiens) (UniProt Q13291)", "data": [{"substance": "CD150 (SLAM) ECD (from UniProt Q13291)", "values": [{"measurement": "Kd", "value": "> 200", "unit": "µM"}]}]}
